Kd data for three molecules are collected here from PMC12776367 (Journal of the American Society of Nephrology : JASN, 2025).

For orientation: Kd means the concentration at which binding is half-saturated. Lower therefore signals higher affinity.

Assay [1] has as its target human vitronectin (2349-VN, R&D Systems) (human, UniProt P04004 20-478). The experiment in a line: BLI. On the technique in general: Biolayer interferometry detects binding as a change in optical thickness at a sensor tip.
Assay [2] concerns the target T1, mouse vitronectin (ab92727, Abcam) (mouse, UniProt P29788 20-478).
T1 sequence (looked up): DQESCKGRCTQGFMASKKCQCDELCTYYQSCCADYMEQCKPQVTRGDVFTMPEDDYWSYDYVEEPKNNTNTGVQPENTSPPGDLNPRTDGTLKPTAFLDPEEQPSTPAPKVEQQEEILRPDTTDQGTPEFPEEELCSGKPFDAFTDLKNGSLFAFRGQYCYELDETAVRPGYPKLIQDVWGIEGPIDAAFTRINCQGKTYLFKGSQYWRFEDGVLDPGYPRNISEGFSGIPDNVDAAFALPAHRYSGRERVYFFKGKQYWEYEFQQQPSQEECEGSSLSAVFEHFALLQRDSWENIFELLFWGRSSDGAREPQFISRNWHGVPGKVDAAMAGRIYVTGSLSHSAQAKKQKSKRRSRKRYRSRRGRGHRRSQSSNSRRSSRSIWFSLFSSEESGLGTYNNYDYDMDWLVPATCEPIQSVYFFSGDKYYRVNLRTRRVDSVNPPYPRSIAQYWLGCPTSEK
The experiment in a line: BLI.

human vitronectin (2349-VN, R&D Systems), sequence (P04004 20-478): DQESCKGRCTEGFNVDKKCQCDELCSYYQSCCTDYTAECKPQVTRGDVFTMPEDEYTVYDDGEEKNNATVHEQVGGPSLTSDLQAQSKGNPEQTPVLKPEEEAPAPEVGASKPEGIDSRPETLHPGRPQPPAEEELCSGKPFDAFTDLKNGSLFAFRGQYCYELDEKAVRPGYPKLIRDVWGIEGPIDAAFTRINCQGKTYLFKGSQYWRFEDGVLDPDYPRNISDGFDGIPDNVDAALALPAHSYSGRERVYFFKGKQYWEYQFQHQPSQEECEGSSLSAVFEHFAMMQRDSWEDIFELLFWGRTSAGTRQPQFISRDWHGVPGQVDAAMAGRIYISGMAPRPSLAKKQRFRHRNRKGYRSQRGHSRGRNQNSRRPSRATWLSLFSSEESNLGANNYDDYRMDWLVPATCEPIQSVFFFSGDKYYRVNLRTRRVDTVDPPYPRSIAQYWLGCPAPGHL

B1: His-tagged human testican-2 (2328-PI, R&D Systems) (natural protein, UniProt Q92563 23-424, looked up)
chain: EGDAKGLKEGETPGNFMEDEQWLSSISQYSGKIKHWNRFRDEVEDDYIKSWEDNQQGDEALDTTKDPCQKVKCSRHKVCIAQGYQRAMCISRKKLEHRIKQPTVKLHGNKDSICKPCHMAQLASVCGSDGHTYSSVCKLEQQACLSSKQLAVRCEGPCPCPTEQAATSTADGKPETCTGQDLADLGDRLRDWFQLLHENSKQNGSASSVAGPASGLDKSLGASCKDSIGWMFSKLDTSADLFLDQTELAAINLDKYEVCIRPFFNSCDTYKDGRVSTAEWCFCFWREKPPCLAELERIQIQEAAKKKPGIFIPSCDEDGYYRKMQCDQSSGDCWCVDQLGLELTGTRTHGSPDCDDIVGFSGDFGSGVGWEDEEEKETEEAGEEAEEEEGEAGEADDGGYIW
As to B1, binding in assay [1] was characterised by a dissociation constant (Kd) of 37.4 ± 0.6 nM.

B2: deglycosylated human testican-2 (natural protein, UniProt Q92563 23-424, looked up)
chain: B1 chain
modifications: deglycosylated (Protein Deglycosylation Mix II kit)
As to B2, in assay [1], binding was put at a Kd of 348 ± 12.4 nM.

B3: His-tagged mouse testican-2 (MBS1458329, MyBioSource) (natural protein, UniProt Q9ER58 23-423, looked up)
chain: EGDAKGLKEGETPGNFMEDEQWLSSISQYSGKIKHWNRFRDEVEDDYIKSWEDNQQGDEALDTTKDPCQKVKCSRHKVCVAQGYQRAMCISRKKLEHRIKQPSLKLHGGKDSVCKPCHMAQLASVCGSDGHTYSSVCKLEQQACLSSKQLAVRCEGPCPCPTEQSTASTTDSKSETCTGQDLADLGDRLRDWFQLLRENSKQNGSANSATNPAGLDKSLGASCKDSIGWMFSKLDTSGDLFLDQTELAAINLDKYEVCIRPFFNSCDTYKDGRVSTAEWCFCFWREKPPCLAELERTQIQEAAKKKPGVFIPSCDEDGYYRKMQCDQSRGDCWCVDQLGLELTGTRMHGTPDCDDIVGFSGDFGSGVGWEDEEEKETEEAGEEAEEEEGEAGEADDGGYIW
B3 came in with a dissociation constant (Kd) in assay [2] of 63.7 ± 2.3 nM.
